Experimental data published in patent US20230348616A1 (MIE UNIVERSITY, published 2023).
Read-outs that look alike come from different tables or passages of the source.

Tests used:
[1] = biological target: T1, HLA-A*0201/β2-microglobulin/NY-ESO peptide complex (human, biotinylated with E. coli biotin ligase at the added recognition sequence (biotinylated form used in the ELISA)); experiment: ELISA, biotinylated HLA/NY-ESO on NeutrAvidin, scFv from E. coli culture, anti-FLAG-HRP
T1 construct: also called HLA/NY-ESO; HLA-A2/NY-ESO
Experimental: The plate was washed 3 times with ELISA buffer, blocked with Blocker Casein (Thermo Fisher Scientific), and then washed 3 times with ELISA buffer. Thereafter, a culture solution of scFv-expressing E. coli was added, and the reaction was allowed to proceed at room temperature for 2 hours. After the resultant was washed 3 times with ELISA buffer, 50 μl of the horseradish peroxidase (HRP)-labeled anti-FLAG antibody (Sigma-Aldrich) diluted to 5,000-fold with ELISA buffer was added, and the reaction was allowed to proceed at room temperature for 1 hour.

[2] = biological target: T2, HLA-A2 / homologous peptide DOLPP1 complex on T2 cells (human); experiment: flow cytometry, peptide-pulsed T2 cells
T2 construct: whole, on cells; also called T2 cells supplemented with homologous peptide DOLPP1

[3] = biological target: T3, HLA-A2 / homologous peptide IL20RB complex on T2 cells (human); experiment: flow cytometry, peptide-pulsed T2 cells
T3 construct: whole, on cells; also called T2 cells supplemented with homologous peptide IL20RB

[4] = biological target: T4, HLA-A2 / homologous peptide PRKD2 complex on T2 cells (human); experiment: flow cytometry, peptide-pulsed T2 cells
T4 construct: whole, on cells; also called T2 cells supplemented with homologous peptide PRKD2

[5] = biological target: T5, HLA-A2 / homologous peptide CD163 complex on T2 cells (human); experiment: flow cytometry, peptide-pulsed T2 cells
T5 construct: whole, on cells; also called T2 cells supplemented with homologous peptide CD163

[6] = biological target: T6, HLA-A2 / homologous peptide P2RY8 complex on T2 cells (human); experiment: flow cytometry, peptide-pulsed T2 cells
T6 construct: whole, on cells; also called T2 cells supplemented with homologous peptide P2RY8

[7] = biological target: T7, gp100 (human); experiment: flow cytometry on peptide-pulsed T2 cells, scFv 100 nM
T7 construct: cell surface;cell surface complex; also called HLA-A2 / gp100 peptide complex on T2 cells
Experimental: (§1) The resultant was washed two times in the AIM-V medium containing 20% FBS, the concentration thereof was adjusted to an adequate level with PBS containing 5% FBS, the LIVE/DEAD Fixable Dead Cell Stain Kit (Thermo Fisher Scientific) was added thereto, and the resultant was allowed to stand at 4° C. for 30 minutes. The cells were washed 2 times in PBS containing 5% FBS, the washed cells were divided into two groups, the cells in PBS containing 5% FBS were seeded on a 96-well U-bottom microplate at 10⁵ cells/well, and the plate was subjected to centrifugation, followed by removal of the supernatant. Anti-HLA/NY-ESO scFv diluted to 100 nM with PBS containing 5% FBS was added at 25 μl/well to one of the divided cells, and the resultant was allowed to stand at 4° C. for 30 minutes. The cells were washed 2 times in PBS containing 5% FBS, Penta-His Alexa Fluor488 (QIAGEN) diluted in PBS containing 5% FBS was added at 25 μl/well, and the resultant was allowed to stand at 4° C. for 30 minutes. The cells were washed 2 times in PBS containing 5% FBS, Anti-mouse-IgG Alexa Fluor488 (Thermo Fisher Scientific) diluted in PBS containing 5% FBS was added at 25 μl/well, and the resultant was allowed to stand at 4° C. for 30 minutes. The cells were washed 2 times in PBS containing 5% FBS, immobilized with Mildform 10 N (FUJIFILM Wako Pure Chemical Corporation) overnight, and resuspended in PBS containing 5% FBS. […] The cells were washed 2 times in PBS containing 5% FBS, immobilized with Mildform 10 N (FUJIFILM Wako Pure Chemical Corporation) overnight, and resuspended in PBS containing 5% FBS. The cell suspensions were subjected to detection using a flow cytometer (CantoII, Becton Dickinson). […] The standardized gMFI indicating the binding affinity of each scFv standardized with the amount of the HLA/peptide complex on the T2 cells was determined in accordance with the following equation.

[8] = biological target: T8, HLA-A2/NY-ESO peptide complex presented on cells (human); experiment: as above
T8 construct: whole, on cells; also called HLA/NY-ESO; T2 cells supplemented with the NY-ESO peptide
Experimental: as §1

[9] = biological target: T7, gp100; experiment: as above; remark: listed apart in the source
Experimental: (§2) The cells were washed 2 times in PBS containing 5% FBS, immobilized with Mildform 10 N (FUJIFILM Wako Pure Chemical Corporation) overnight, and resuspended in PBS containing 5% FBS. The cell suspensions were subjected to detection using a flow cytometer (CantoII, Becton Dickinson). […] The standardized gMFI indicating the binding affinity of each scFv standardized with the amount of the HLA/peptide complex on the T2 cells was determined in accordance with the following equation.
(§3) The 9-mer peptide shown in FIG. 2A was selected as a homologous peptide for evaluation of binding specificity of anti-HLA/NY-ESO scFv. […] The standardized gMFI indicating the binding affinity of each scFv standardized with the amount of the HLA/peptide complex on the T2 cells was determined in accordance with the following equation.

[10] = biological target: T8, HLA-A2/NY-ESO peptide complex presented …; experiment: as above; remark: listed apart in the source
Experimental: as §2, §3

[11] = biological target: T2, HLA-A2 / homologous peptide DOLPP1 …; experiment: as above
Experimental: as §2, §3

[12] = biological target: T3, HLA-A2 / homologous peptide IL20RB …; experiment: as above
Experimental: as §2, §3

[13] = biological target: T4, HLA-A2 / homologous peptide PRKD2 …; experiment: as above
Experimental: as §2, §3

[14] = biological target: T5, HLA-A2 / homologous peptide CD163 …; experiment: as above
Experimental: as §2, §3

[15] = biological target: T6, HLA-A2 / homologous peptide P2RY8 …; experiment: as above
Experimental: as §2, §3

[16] = biological target: T1, HLA-A*0201/β2-microglobulin/NY-ESO …; experiment: SPR (Biacore T200), scFv captured by anti-His antibody, HLA/NY-ESO as analyte, single cycle kinetics
Experimental: With the use of Biacore T200, anti-HLA/NY-ESO scFv was captured as a ligand by the immobilized anti-His antibody, and the antigen was assayed as an analyte. As the antigen, HLA/NY-ESO prepared in 1)-1 was used. The anti-His antibody (His Capture kit, GE Healthcare) was immobilized on Sensor Chip CM5 (GE Healthcare) in accordance with the instructions of the kit. The anti-HLA/NY-ESO scFv constructs diluted to 0.5 μg/ml in HBS-EP+ (GE Healthcare) to be evaluated were brought into contact therewith at 10 μl/min for 60 seconds for immobilization. Thereafter, the samples were added to the HLA/NY-ESO analytes diluted to various levels with HBS-EP+ at a flow rate of 30 μl/min for 120 seconds and dissociation was assayed for 600 seconds.

Row | Binder | binding result [1] | binding result [2] | binding result [3] | binding result [4] | binding result [5] | binding result [6] | standardized gMFI [7] | standardized gMFI [8] | standardized gMFI [9] | standardized gMFI [10] | standardized gMFI [11] | standardized gMFI [12] | standardized gMFI [13] | standardized gMFI [14] | standardized gMFI [15] | Kd [16] [nM]
1 | NY-R119 (scFv, Expressed in E. coli, culture solution used in the ELISA; also called ELISA-positive clone NY-R119; not shown: FLAG tag and His tag at the carboxyl terminus from the E. coli expression vector) scFv: EVQLVESGGGVVQPGRSLTPSCSASGFSIRSYDIHWVRQAPGKGLEWVATISYDGSQKYFADSVKGRFTIFRDESENMVYLQMSGLRVEDTAVYHCARGSSGHYEAFDIWGQGTMVTVSSGGGGSGGGGSGGGGSQSVLTQPPSVSAAPGQKVTISCSGSSSNIGNNYVSWYQQLPGTAPKLLIYDNNKRPSGIPDRFSGSKSGTSATLGITGLQTGDEADYYCGTWDSSLSAPWVFGGGTKVTVL | binds |  |  |  |  |  |  |  |  |  |  |  |  |  |  | 
2 | NYA-2048 (scFv, also called NYA-2048 tag adduct) scFv: GQVQLVESGGGVVQPGRSLRLSCAASGFSIRSYDMHWVRQAPGKGLEWVATISYDGSQKYYADSVKGRFTISRDNSKNTLYLQMSSLRAEDTAVYHCARGSSGHYEAFDIWGQGTLVTVSSGGGGSGGGGSGGGGSQSVLTQPPSASGTPGQRVTISCSGSSSNIGNWYVSWYQQLPGTAPKLLIYDNNKRPSGVPDRFSGSKSGTSASLAISGLQSEDEADYYCGTWDSSLSAPWVFGGGTKLTVLGAAAGAGGDYKDDDDKGAAAHHHHHH |  | no binding (tested: 100 nM) | no binding (tested: 100 nM) | no binding (tested: 100 nM) | no binding (tested: 100 nM) | no binding (tested: 100 nM) | 0.41 | 6.58 | 0.34 | 8.82 | 0.44 | 0.48 | 0.35 | 0.52 | 0.69 | 6.3
